Patent publication US20220251151A1

Tests used:
Test in all cases: cell-based or functional assay
[1] = target: human Kv1.1 potassium channel (α-subunit) (human) (UniProt Q09470)
[2] = target: human Kv1.2 potassium channel (α-subunit) (human) (UniProt P16389)
[3] = target: human Kv1.3 potassium channel (potassium voltage-gated channel subfamily A member 3, α-subunit) (human) (UniProt P22001)
[4] = target: human Kv1.6 potassium channel (α-subunit) (human) (UniProt P17658)
human Kv1.6 potassium channel (α-subunit) (human), sequence (P17658 whole entry): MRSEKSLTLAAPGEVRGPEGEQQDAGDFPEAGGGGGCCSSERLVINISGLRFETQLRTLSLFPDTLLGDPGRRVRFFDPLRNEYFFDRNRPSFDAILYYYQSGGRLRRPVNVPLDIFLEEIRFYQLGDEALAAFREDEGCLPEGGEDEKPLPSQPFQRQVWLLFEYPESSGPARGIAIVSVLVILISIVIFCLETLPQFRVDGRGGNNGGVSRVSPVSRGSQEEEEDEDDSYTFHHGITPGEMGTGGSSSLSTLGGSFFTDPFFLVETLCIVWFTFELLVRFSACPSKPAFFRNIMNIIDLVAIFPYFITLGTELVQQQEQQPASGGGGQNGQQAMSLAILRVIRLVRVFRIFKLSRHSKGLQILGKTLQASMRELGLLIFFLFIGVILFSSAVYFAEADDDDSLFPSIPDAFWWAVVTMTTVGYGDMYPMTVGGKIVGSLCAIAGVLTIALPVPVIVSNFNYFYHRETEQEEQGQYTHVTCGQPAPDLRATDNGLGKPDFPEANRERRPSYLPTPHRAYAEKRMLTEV

human Kv1.2 potassium channel (α-subunit) (human), sequence (P16389 whole entry): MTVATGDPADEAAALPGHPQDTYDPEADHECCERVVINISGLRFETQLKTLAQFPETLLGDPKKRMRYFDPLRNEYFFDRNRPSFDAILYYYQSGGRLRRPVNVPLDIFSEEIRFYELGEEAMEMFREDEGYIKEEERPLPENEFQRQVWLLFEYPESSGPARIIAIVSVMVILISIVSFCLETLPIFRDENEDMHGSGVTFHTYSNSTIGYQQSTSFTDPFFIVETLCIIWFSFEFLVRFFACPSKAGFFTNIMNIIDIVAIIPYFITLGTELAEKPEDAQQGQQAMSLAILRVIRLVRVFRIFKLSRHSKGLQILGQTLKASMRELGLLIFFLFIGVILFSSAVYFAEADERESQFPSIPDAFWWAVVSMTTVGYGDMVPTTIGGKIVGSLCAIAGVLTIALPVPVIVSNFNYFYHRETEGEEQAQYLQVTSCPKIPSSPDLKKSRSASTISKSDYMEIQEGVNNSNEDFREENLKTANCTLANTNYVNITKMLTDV
human Kv1.1 potassium channel (α-subunit) (human), sequence (Q09470 whole entry): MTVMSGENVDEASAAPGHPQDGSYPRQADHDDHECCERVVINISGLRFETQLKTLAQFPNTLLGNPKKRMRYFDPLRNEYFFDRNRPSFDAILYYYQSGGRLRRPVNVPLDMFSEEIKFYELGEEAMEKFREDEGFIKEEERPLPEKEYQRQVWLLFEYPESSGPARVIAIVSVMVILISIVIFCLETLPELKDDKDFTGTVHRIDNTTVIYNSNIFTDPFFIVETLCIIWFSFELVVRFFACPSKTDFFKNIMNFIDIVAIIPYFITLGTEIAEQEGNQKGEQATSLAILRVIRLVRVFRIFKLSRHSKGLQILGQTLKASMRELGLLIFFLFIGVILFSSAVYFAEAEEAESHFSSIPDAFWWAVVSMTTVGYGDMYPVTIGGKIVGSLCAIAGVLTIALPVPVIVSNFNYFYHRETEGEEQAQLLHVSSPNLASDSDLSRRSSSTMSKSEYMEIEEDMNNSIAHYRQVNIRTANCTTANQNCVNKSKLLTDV
human Kv1.3 potassium channel (potassium voltage-gated channel subfamily A member 3, α-subunit) (human), sequence (P22001 whole entry): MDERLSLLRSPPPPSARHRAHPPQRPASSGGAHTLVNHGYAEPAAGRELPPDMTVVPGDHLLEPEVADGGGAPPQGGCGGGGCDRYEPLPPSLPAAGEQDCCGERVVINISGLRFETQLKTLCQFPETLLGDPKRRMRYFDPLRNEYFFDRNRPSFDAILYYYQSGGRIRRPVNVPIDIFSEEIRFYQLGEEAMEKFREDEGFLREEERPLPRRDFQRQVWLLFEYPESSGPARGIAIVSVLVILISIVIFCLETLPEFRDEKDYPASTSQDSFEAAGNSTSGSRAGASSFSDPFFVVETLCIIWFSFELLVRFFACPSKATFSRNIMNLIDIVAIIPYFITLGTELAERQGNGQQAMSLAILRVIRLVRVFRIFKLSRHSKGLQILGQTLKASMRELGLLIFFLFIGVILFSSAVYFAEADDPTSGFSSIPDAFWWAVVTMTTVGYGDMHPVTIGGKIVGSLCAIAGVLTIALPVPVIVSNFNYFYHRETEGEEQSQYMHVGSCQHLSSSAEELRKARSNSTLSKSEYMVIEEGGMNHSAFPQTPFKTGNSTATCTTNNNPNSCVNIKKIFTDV

Substance: Moka1 (peptide)
- Potency IC50 (patch clamp) [1]: > 3000 nM
- Selectivity Kv1.1/Kv1.3 [1]: > 300
- Potency IC50 (patch clamp) [2]: 275 nM
- Selectivity Kv1.2/Kv1.3 [2]: 31
- Potency IC50 (patch clamp) [3]: 9 nM
- Potency IC50 (patch clamp) [4]: > 3000 nM
- Selectivity Kv1.6/Kv1.3 [4]: > 300

Substance: Vm24 (peptide)
- Potency IC50 (patch clamp) [1]: 0.097 nM
- Selectivity Kv1.1/Kv1.3 [1]: 0.65
- Potency IC50 (patch clamp) [2]: 4.7 nM
- Selectivity Kv1.2/Kv1.3 [2]: 31
- Potency IC50 (patch clamp) [3]: 0.15 nM
- Potency IC50 (patch clamp) [4]: 21 nM
- Selectivity Kv1.6/Kv1.3 [4]: 139

Substance: ShK (peptide)
- Potency IC50 (patch clamp) [2]: 11 nM
- Potency IC50 (patch clamp) [3]: 0.017 nM
- Potency IC50 (patch clamp) [4]: 0.19 nM
